From patent publication US20250066499A1 (SUNSHINE GUOJIAN PHARMACEUTICAL SHANGHAI, published 2025) come the findings set out here.

Changes are numbered by the printed parent chain.

Experiment in all cases: ELISA; decline multiple of Top against CD73-ND
In general terms: ELISA stands for enzyme-linked immunosorbent assay.

For one test, the target named is T1, CD73-ND-Y132A (human, UniProt P21589 27-317).
T1 construct: Alanine mutant of CD73-ND
T1 sequence: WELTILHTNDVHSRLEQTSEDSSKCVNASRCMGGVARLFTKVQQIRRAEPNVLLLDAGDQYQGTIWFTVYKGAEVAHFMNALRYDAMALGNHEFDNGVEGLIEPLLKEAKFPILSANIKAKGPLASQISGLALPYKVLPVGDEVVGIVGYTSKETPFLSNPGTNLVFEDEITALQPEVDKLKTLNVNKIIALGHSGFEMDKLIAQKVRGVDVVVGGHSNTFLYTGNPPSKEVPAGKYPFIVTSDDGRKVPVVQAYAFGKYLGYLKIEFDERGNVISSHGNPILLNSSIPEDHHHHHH
The method, then: (§1) The ELISA plates were coated with SA protein diluted to 1.5 μg/mL in coating buffer (50 mM carbonate coating buffer, pH 9.6) and incubated overnight at 4° C. The supernatant was discarded, and the plates were washed three times with PBST. Then, 5% skimmed milk powder prepared with PBS was added for blocking and the plates were incubated for 2 h at 37° C. After washing the plates once with PBST, CD73-biotin protein (prepared by biotinylating CD73-His protein according to the EZ-Link NHS-Biotin Reagent instructions) was diluted to 0.5 μg/mL and added at 100 μL/well for incubation at room temperature for 1 h. The plates were washed three times with PBST, and the prepared murine-derived monoclonal antibodies against human CD73 were serially diluted with 1% BSA buffer prepared with PBST and added to the ELISA plates at 100 μl/well. The plates were incubated at 37° C. for 1 h. After washing the plates three times with PBST, HRP-labeled goat anti-mouse IgG secondary antibody was added and the plates were incubated for 30 min at 37° C. After washing the plates three times with PBST, the residual droplets were patted dry on absorbent paper as much as possible. Then, 100 μl of TMB color developing solution was added to each well, and the plates were incubated in the dark at room temperature for 5 min for color development. Subsequently, 50 μl of 2M H₂SO₄ stop solution was added to each well to terminate the substrate reaction. The OD values were read at 450 nm using a multimode microplate reader to analyze the binding ability of the tested antibodies to the target antigen human CD73-His.
(§2) Referring to the experimental method in Example 3, the affinity of 48A11-HuV33 for various mutant proteins of CD73-ND was determined. The SA protein was diluted to 1 μg/mL for coating the ELISA plates, and the biotinylated CD73 protein (CD73-biotin) was used at a concentration of 0.1 μg/mL.

A further test addresses T2, CD73-ND-P134A (human, UniProt P21589 27-317).
T2 construct: Alanine mutant of CD73-ND
T2 sequence: T1 sequence with A132Y, P134A
The method, then:
as §1, §2

For a further test, the target named is T3, CD73-ND-Y135A (human, UniProt P21589 27-317).
T3 construct: Alanine mutant of CD73-ND
T3 sequence: T1 sequence with A132Y, Y135A
The method, then:
as §1, §2

B1: 48A11-HuV33 (antibody, human IgG4, V domains shown)
VH: QVQLVQSGAEVKKPGASVKVSCKASGYTFTSYWMHWVRQAPGQGLEWIGEINPSIGRTNYNEKFKSRVTLTRDTSTSTAYMELSSLRSEDTAVYYCARRVYGTMDYWGQGTLVTVSS
VL: DIQMTQSPSSLSASVGDRVTITCKASQDINSYLSWFQQKPGKSPKLLIYRANIWVDGVPSRFSGSGSGQDYTFTISSLQPEDIATYYCLQYDELYTFGQGTKVEIK
notes: Humanized
For B1, the “Ratio(Top)” value was 8.2 fold with CD73-ND-Y132A, 1.1 fold with CD73-ND-P134A and 1.1 fold in the test with CD73-ND-Y135A.
